Results as given in patent US7704703B2, “Arf and Hdm2 interaction domains and the methods of use thereof” (St. Jude Children's Research Hospital, Inc., priority 2002, dated 2010).
Where no end group is shown, it is not given here.

Legend:
Hdm2 210-304 [1] = biological target: T1, Hdm2 210-304 (Homo sapiens, UniProt Q00987); assay: Surface plasmon resonance: Arf library peptides binding to immobilized His-tagged Hdm2 210-304; conditions: 15 amino acid peptides; maximal SPR signal after binding for 10 minutes
T1 construct: poly-His (thrombin cleavable, pET28a) (cleaved yes); made in house; host or cells: E. coli BL21(DE3)
T1 sequence (Q00987 210-304): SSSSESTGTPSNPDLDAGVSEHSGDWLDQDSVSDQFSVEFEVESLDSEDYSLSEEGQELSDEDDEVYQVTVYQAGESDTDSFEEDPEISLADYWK
Experimental: Surface Plasmon Resonance. Binding studies were performed using a Biacore 3000 surface plasmon resonance (SPR) instrument (Biacore, Inc.). A Tetra-His™ Antibody (Qiagen, Inc.; Cat. #34670) was covalently attached to a carboxymethylated gold surface (C-1 chip; Biacore, Inc.). The carboxymethyl groups on the surface were activated with N-ethyl-N′-(3-dimethylaminopropyl) carbodiimide (EDC) and N-hydroxysuccinimide (NHS) and the antibody was attached at pH 7.4 in 20 mM sodium phosphate buffer, 150 mM NaCl (PBS). Reactive sites remaining on the surface were blocked by reaction with ethanolamine. […] Binding was measured by flowing the non-His-tagged analyte through the reference and ligand-containing flow cells in sequence. […] Changes in the SPR response due to solvent differences and the injection process were monitored by injection of HBS-N buffer alone. […]
Two libraries of peptides 15 amino acids in length were synthesized based on the sequence of exon 1β of mouse p19^Arf and the entire sequence of human p14^Arf. […] The ability of these peptides to bind Hdm2 fragments was determined using the surface plasmon resonance (SPR) technique with a Biacore 3000 instrument. […] Relative binding affinity was judged on the basis of the maximal SPR signal detected after binding for 10 minutes.

Hdm2 210-304 [2] = biological target: T1, Hdm2 210-304; assay: CD-based binding assay, induction of β-strand secondary structure with Hdm2 210-304
Experimental: Circular Dichroism. Spectra were recorded at 25° C. using an Aviv Model 62A DS circular dichroism spectropolarimeter (Aviv Instruments, Inc.) equipped with a thermoelectric temperature control unit. All samples were prepared in 10 mM Tris-HCl, pH 7.0 at 0.02-0.2 mM as determined by amino acid analysis. Spectra were recorded using 1 mm quartz cuvettes and reported spectra are the average of 10 scans over the range […]. Melting experiments were recorded in 10 mm quartz cuvettes with active stirring. The signal at 216 nm (β strand minimum) was used to monitor structural changes and the signal was averaged over 15 sec. The sample temperature was increased in 1° C. steps. […]
Characterization of Arf Hdm2 assemblies. […] The binding of mArfN37 to Hdm2 210-304, as monitored in this way, is saturable. […]
To investigate the roles of individual Arf motifs (A1 and A2) and Arf-binding segments of Hdm2 (H1 and H2) in the interactions between Arf and Hdm2 the binding of peptides containing these small segments (A1, A2, H1, or H2) to larger protein fragments of the corresponding binding partner (mArfN37 or Hdm2 210-304) were monitored using the CD-based binding assay. […] Peptides from the Hdm2 library that were positive for mArfN37 binding on the basis of SPR (i.e. those within H1 and H2) were mixed with mArfN37 and binding was monitored in the same manner. […]

Hdm2 210-275 = biological target: T2, Hdm2 210-275 (Homo sapiens, UniProt Q00987); assay: CD-based binding assay, induction of β-strand secondary structure with Hdm2 210-275
T2 construct: poly-His (thrombin cleavable, pET28a) (cleaved yes); made in house; host or cells: E. coli BL21(DE3)
T2 sequence (Q00987 210-275): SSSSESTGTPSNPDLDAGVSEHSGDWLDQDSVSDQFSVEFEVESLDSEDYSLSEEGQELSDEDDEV
Experimental: Circular Dichroism. Spectra were recorded at 25° C. using an Aviv Model 62A DS circular dichroism spectropolarimeter (Aviv Instruments, Inc.) equipped with a thermoelectric temperature control unit. All samples were prepared in 10 mM Tris-HCl, pH 7.0 at 0.02-0.2 mM as determined by amino acid analysis. Spectra were recorded using 1 mm quartz cuvettes and reported spectra are the average of 10 scans over the range […]. Melting experiments were recorded in 10 mm quartz cuvettes with active stirring. The signal at 216 nm (β strand minimum) was used to monitor structural changes and the signal was averaged over 15 sec. The sample temperature was increased in 1° C. steps.
β-strand secondary structure forms when Arf and Hdm2 interact. […] This structural transition is induced when mArfN37 is added to an Hdm2 fragment and when an Hdm2 fragment is added to mArfN37. […] In contrast, the uncomplexed species elute at times consistent with monodisperse, conformationally extended polypeptides. Second, NMR resonances for ^15N-mArfN37 or ^15N-Hdm2 210-304 (and ^15N-Hdm2 210-275) are broadened beyond detection when an unlabeled form of the appropriate binding partner is added to the solution. At mArfN37:Hdm2 210-304 (or mArfN37:Hdm2 210-275) molar ratios that produce maximal β-strand secondary structure based on ellipticity at 200 nm using CD, resonances cannot be observed for the isotope-labeled component of Arf/Hdm2 mixtures. Further, the NMR spectra are consistent with slow exchange between the free and bound states.
Characterization of Arf Hdm2 assemblies. As discussed above, the addition of mArfN37 to Hdm2 210-304 results in the formation of supramolecular assemblies comprised of β-strands. Stepwise addition of sub-stoichiometric amounts of mArfN37 to Hdm2 210-304 increased β-strand secondary structure content as judged by the change in ellipticity at 200 nm using CD. […] The binding of mArfN37 to Hdm2 210-304, as monitored in this way, is saturable. Similar results were obtained when mArfN37 was mixed with the shorter fragment of Hdm2, Hdm2 210-275. Further, saturable binding is also observed when the Hdm2 fragments were added to an excess of mArfN37. These findings indicate that there are a limited number of binding sites for mArfN37 within Hdm2 210-304 and that discreet structures (containing β-strands) form when mArfN37 and Hdm2 210-304 (or 210-275) are mixed. […] Similar behavior is observed when mArfN37 binds Hdm2 210-275.

Substance	binding of Arf library peptides to Hdm2 210-304 (SPR) (Hdm2 210-304 [1])	induction of β-strand secondary structure when mixed with Hdm2 210-304 (CD) (Hdm2 210-304 [2])	induction of β-strand secondary structure/assembly when mixed with Hdm2 210-275 (CD) (Hdm2 210-275)
mouse Arf peptide residues 31-45: mouse p19^Arf library 15-mer spanning residues 31-45, contains the RRPR nucleolar localization signal (RRPRTASCALAFVNM; UniProt Q64364 31-45, looked up, fragment)	bind Hdm2 210-304	–	–
human Arf peptide residues 86-100: human p14^Arf library 15-mer spanning residues 86-100, contains the NoLS RRPR (LRRPRHSHPTRARRC; UniProt Q8N726 86-100, looked up, fragment)	binds Hdm2 210-304	–	–
mArfN37: peptide containing the N-terminal 37 amino acids of mouse Arf (p19^Arf residues 1-37, SEQ ID NO:16) (MGRRFLVTVRIQRAGRPLQERVFLVKFVRSRRPRTAS; also: His tag; listed as Mus musculus)	–	transition from random conformations to β-strand secondary structure	transition from random conformations to β-strand secondary structure
